Laboratory results published in patent US20080009025A1, “PROTEIN KINASE REGULATION” (priority 1999, published 2008).

Biological target: GST-PDK1[K115A], O15530
Test: cell-based or functional assay

Chain of GST-PDK1[K115A], O15530 (O15530 whole entry K115A): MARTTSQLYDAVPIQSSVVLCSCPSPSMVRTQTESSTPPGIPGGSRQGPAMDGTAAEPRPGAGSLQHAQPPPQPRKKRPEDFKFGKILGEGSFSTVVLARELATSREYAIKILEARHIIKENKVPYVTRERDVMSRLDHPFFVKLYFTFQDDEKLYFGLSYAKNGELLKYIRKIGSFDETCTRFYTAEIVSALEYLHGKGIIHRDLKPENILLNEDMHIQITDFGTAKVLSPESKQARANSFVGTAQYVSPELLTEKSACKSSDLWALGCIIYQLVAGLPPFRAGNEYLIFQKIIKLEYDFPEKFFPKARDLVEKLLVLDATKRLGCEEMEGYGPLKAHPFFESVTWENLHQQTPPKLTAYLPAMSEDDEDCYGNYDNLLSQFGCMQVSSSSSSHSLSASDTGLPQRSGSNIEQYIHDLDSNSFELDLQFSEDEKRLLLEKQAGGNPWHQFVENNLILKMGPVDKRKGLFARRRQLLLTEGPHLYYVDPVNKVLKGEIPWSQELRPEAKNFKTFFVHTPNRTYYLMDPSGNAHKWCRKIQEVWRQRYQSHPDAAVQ

- inhibition by 2 µM PIFtide of the activation of S6K1-T2[T412E] and SGK1[T422D] by this PDK1 mutant: 50%
- inhibition by 35 µM PIFtide of the activation of S6K1-T2[T412E] and SGK1[T422D] by this PDK1 mutant: > 95%
Binder: REPRILSEEEQEMFRDFDYIADWC [PIFtide (24 residue synthetic peptide encompassing the PDK1 binding site on PIF)]
